According to US6500417 (DSM N V, dated 2002):
Changes are numbered by the printed parent chain.

B1: hIL-3 substitution mutant 1480 (Asp36→Arg36) (ligand)
chain: APMTQTTPLKTSWVNCSNMIDEIITHLKQPPLPLLRFNNLNGEDQDILMENNLRRPNLEAFNRAVKSLQNASAIESILKNLLPCLPLATAAPTRHPIHIKDGDWNEFRRKLTFYLKTLENAQAQQTTLSLAIF
notes: also called 36D→R; not shown: heterologous N-terminal leader of the E. coli fusion (pGB/IL-336: 12 aa; pGB/IL-339: 15 aa)
B2: hIL-3 substitution mutant 1491 (Glu106→Lys106) (ligand)
chain: B1 chain with R36D, E106K
notes: also called 106E → K; not shown: heterologous N-terminal leader of the E. coli fusion (pGB/IL-336: 12 aa; pGB/IL-339: 15 aa)
B3: hIL-3 substitution mutant 1487A (Glu75→Gly75) (ligand)
chain: B1 chain with R36D, E75G
notes: also called 75E → G; not shown: heterologous N-terminal leader of the E. coli fusion (pGB/IL-336: 12 aa; pGB/IL-339: 15 aa)
B4: hIL-3 substitution mutant 1482 (Asp46→Arg46) (ligand)
chain: B1 chain with R36D, D46R
notes: also called 46D→R; not shown: heterologous N-terminal leader of the E. coli fusion (pGB/IL-336: 12 aa; pGB/IL-339: 15 aa)
B5: hIL-3 substitution mutant 1490 (His98Lys100Asp101→Glu98Asp100Gln101) (ligand)
chain: B1 chain with R36D, H98E, K100D, D101Q
notes: also called 98HIKD → EIKQ; not shown: heterologous N-terminal leader of the E. coli fusion (pGB/IL-336: 12 aa; pGB/IL-339: 15 aa)
B6: hIL-3 substitution mutant 1487B (Glu75→Arg75) (ligand)
chain: B1 chain with R36D, E75R
notes: also called 75E → R; not shown: heterologous N-terminal leader of the E. coli fusion (pGB/IL-336: 12 aa; pGB/IL-339: 15 aa)
B7: hIL-3 substitution mutant 1485 (Glu59→Lys59) (ligand)
chain: B1 chain with R36D, E59K
notes: also called 59E → K; not shown: heterologous N-terminal leader of the E. coli fusion (pGB/IL-336: 12 aa; pGB/IL-339: 15 aa)
B8: hIL-3 deletion mutant 939 (deletion 120-130) (ligand)
chain: APMTQTTPLKTSWVNCSNMIDEIITHLKQPPLPLLDFNNLNGEDQDILMENNLRRPNLEAFNRAVKSLQNASAIESILKNLLPCLPLATAAPTRHPIHIKDGDWNEFRRKLTFYLKTLEAIF
notes: not shown: heterologous N-terminal leader of the E. coli fusion (pGB/IL-336: 12 aa; pGB/IL-339: 15 aa)
B9: hIL-3 deletion mutant 932 (deletion 1-14) (ligand)
chain: NCSNMIDEIITHLKQPPLPLLDFNNLNGEDQDILMENNLRRPNLEAFNRAVKSLQNASAIESILKNLLPCLPLATAAPTRHPIHIKDGDWNEFRRKLTFYLKTLENAQAQQTTLSLAIF
notes: as for B8
B10: hIL-3 double deletion mutant 9329 (deletions 1-14/120-130) (ligand)
chain: NCSNMIDEIITHLKQPPLPLLDFNNLNGEDQDILMENNLRRPNLEAFNRAVKSLQNASAIESILKNLLPCLPLATAAPTRHPIHIKDGDWNEFRRKLTFYLKTLEAIF
notes: not shown: heterologous N-terminal leader of the E. coli fusion, rebuilt with oligonucleotides 1424/1425
B11: hIL-3 C-terminal deletion mutant 1455 (lacking amino acids 130-133) (ligand)
chain: APMTQTTPLKTSWVNCSNMIDEIITHLKQPPLPLLDFNNLNGEDQDILMENNLRRPNLEAFNRAVKSLQNASAIESILKNLLPCLPLATAAPTRHPIHIKDGDWNEFRRKLTFYLKTLENAQAQQTTLS
B12: hIL-3 deletion mutant 811 (deletion 31-49) (ligand)
chain: APMTQTTPLKTSWVNCSNMIDEIITHLKQPENNLRRPNLEAFNRAVKSLQNASAIESILKNLLPCLPLATAAPTRHPIHIKDGDWNEFRRKLTFYLKTLENAQAQQTTLSLAIF
notes: expressed in Bacillus, lacks a leader
B13: hIL-3 deletion mutant 933 (deletion 29-37) (ligand)
chain: APMTQTTPLKTSWVNCSNMIDEIITHLKNNLNGEDQDILMENNLRRPNLEAFNRAVKSLQNASAIESILKNLLPCLPLATAAPTRHPIHIKDGDWNEFRRKLTFYLKTLENAQAQQTTLSLAIF
notes: as for B12
B14: hIL-3 deletion mutant 812 (deletion 54-61) (ligand)
chain: APMTQTTPLKTSWVNCSNMIDEIITHLKQPPLPLLDFNNLNGEDQDILMENNLNRAVKSLQNASAIESILKNLLPCLPLATAAPTRHPIHIKDGDWNEFRRKLTFYLKTLENAQAQQTTLSLAIF
notes: as for B8
B15: hIL-3 deletion mutant 810 (deletion 20-30) (ligand)
chain: APMTQTTPLKTSWVNCSNMPLPLLDFNNLNGEDQDILMENNLRRPNLEAFNRAVKSLQNASAIESILKNLLPCLPLATAAPTRHPIHIKDGDWNEFRRKLTFYLKTLENAQAQQTTLSLAIF
notes: also called 4810; not shown: heterologous N-terminal leader of the E. coli fusion (pGB/IL-336: 12 aa; pGB/IL-339: 15 aa)
B16: hIL-3 deletion mutant 937 (deletion 89-95) (ligand)
chain: APMTQTTPLKTSWVNCSNMIDEIITHLKQPPLPLLDFNNLNGEDQDILMENNLRRPNLEAFNRAVKSLQNASAIESILKNLLPCLPLAPIHIKDGDWNEFRRKLTFYLKTLENAQAQQTTLSLAIF
notes: as for B8
B17: hIL-3 deletion mutant 936 (deletion 76-83) (ligand)
chain: APMTQTTPLKTSWVNCSNMIDEIITHLKQPPLPLLDFNNLNGEDQDILMENNLRRPNLEAFNRAVKSLQNASAIECLPLATAAPTRHPIHIKDGDWNEFRRKLTFYLKTLENAQAQQTTLSLAIF
notes: as for B8
B18: hIL-3 deletion mutant 934 (deletion 47-54) (ligand)
chain: B14 chain with I47R, L48P, M49N, E50L, N51E, N52A, L53F
notes: as for B8
B19: hIL-3 deletion mutant 821 (deletion 94-102) (ligand)
chain: APMTQTTPLKTSWVNCSNMIDEIITHLKQPPLPLLDFNNLNGEDQDILMENNLRRPNLEAFNRAVKSLQNASAIESILKNLLPCLPLATAAPTDWNEFRRKLTFYLKTLENAQAQQTTLSLAIF
notes: as for B8
B20: hIL-3 deletion mutant 938 (deletion 103-111) (ligand)
chain: B19 chain with D94R, W95H, N96P, E97I, F98H, R99I, R100K, K101D, L102G
notes: as for B8
B21: hIL-3 deletion mutant 820 (deletion 85-90) (ligand)
chain: APMTQTTPLKTSWVNCSNMIDEIITHLKQPPLPLLDFNNLNGEDQDILMENNLRRPNLEAFNRAVKSLQNASAIESILKNLLPCAPTRHPIHIKDGDWNEFRRKLTFYLKTLENAQAQQTTLSLAIF
notes: as for B8
B22: hIL-3 substitution mutant 1493 (Phe113Tyr114→Ala113Thr114) (ligand)
chain: B1 chain with R36D, F113A, Y114T
notes: also called 113FY → AT; not shown: heterologous N-terminal leader of the E. coli fusion (pGB/IL-336: 12 aa; pGB/IL-339: 15 aa)
B23: hIL-3 substitution mutant 1481 (Glu43Asp44→Lys43Arg44) (ligand)
chain: B1 chain with R36D, E43K, D44R
notes: also called 43ED→KR; not shown: heterologous N-terminal leader of the E. coli fusion (pGB/IL-336: 12 aa; pGB/IL-339: 15 aa)
B24: hIL-3 deletion mutant 935 (deletion 60-70) (ligand)
chain: APMTQTTPLKTSWVNCSNMIDEIITHLKQPPLPLLDFNNLNGEDQDILMENNLRRPNLEASAIESILKNLLPCLPLATAAPTRHPIHIKDGDWNEFRRKLTFYLKTLENAQAQQTTLSLAIF
notes: as for B8
B25: hIL-3 deletion mutant 813 (deletion 66-80) (ligand)
chain: APMTQTTPLKTSWVNCSNMIDEIITHLKQPPLPLLDFNNLNGEDQDILMENNLRRPNLEAFNRAVLLPCLPLATAAPTRHPIHIKDGDWNEFRRKLTFYLKTLENAQAQQTTLSLAIF
notes: also called 4813; not shown: heterologous N-terminal leader of the E. coli fusion (pGB/IL-336: 12 aa; pGB/IL-339: 15 aa)

molecular target: T1, IL-3 receptor (human, UniProt P26951 19-378; P32927 17-897); assay: competition with radiolabeled hIL-3 for binding to cells, relative to reference IL-3; done once
T1 construct: whole, on cells; also called ILK3 receptor
Method: (§1) An ILK3 receptor binding assay was performed with purified recombinant hIL-3 (see EPA 0390252) was radiolabeled with the Bolton-Hunter reagent (as described by Budel et al., Blood 74 (1989) 565–571). The specific activity was estimated at 80,000 cpm/ng of IL-3. As target, either donor leukocytes, patient AML cells, or MV4-11 (ATCC: CRL-9591) cells were used. Cells were washed in Hanks Balanced Salt solution and suspended in Alpha-MEM plus 1% BSA. Usually, 3–10×10⁶ cells were incubated with 200–300 pM of radiolabeled IL-3 and various concentrations of unlabeled mutant protein in a total volume of 200 µl for 1 hr at 37° C. Cell-bound labeled IL-3 was centrifuged for 10 min at 1000×g at 4° C. through a 0.5 ml cushion of bovine calf serum in an Eppendorf tube (Budel et al., 1989). The tubes were frozen in liquid nitrogen and the tips cut off for counting in a Packard gamma counter. Competition binding was determined relative to the reference preparation. […] Radiolabeled IL-3 binding to patient AML blasts is competed with unlabeled IL-3 protein (reference preparation). Due to the low number of receptors (less than 200) on the target cells, data for competition mostly varied by one order of magnitude.
[1]Deletion between amino acid numbers of mature human IL-3 is indicated. Substitutions of amino acids are indicated in single letter code. [2]Median specific biological activity is expressed relative to the reference IL-3 preparations. [3]Antagonistic potential is represented as relative receptor binding activity divided by relative biological activity. The range is presented between brackets. […] Muteins were diluted in medium and tested for biological activity. Receptor binding experiments were performed once. †Mutein protein concentration was too low for densitometric scanning and was estimated from gels and western blots. ¤Mutant proteins were expressed in Bacillus and lack a leader polypeptide sequence.

T1 sequence (P26951 19-378, chain 1 of 2): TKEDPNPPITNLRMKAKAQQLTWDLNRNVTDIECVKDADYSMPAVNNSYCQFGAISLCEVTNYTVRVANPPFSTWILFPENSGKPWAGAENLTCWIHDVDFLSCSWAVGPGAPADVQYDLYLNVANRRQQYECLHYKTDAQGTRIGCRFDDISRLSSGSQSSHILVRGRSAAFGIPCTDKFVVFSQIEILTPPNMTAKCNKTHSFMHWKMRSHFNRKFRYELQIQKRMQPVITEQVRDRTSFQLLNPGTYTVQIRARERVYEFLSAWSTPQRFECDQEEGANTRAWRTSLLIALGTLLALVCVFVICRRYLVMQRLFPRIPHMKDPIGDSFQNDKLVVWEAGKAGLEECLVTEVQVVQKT
T1 sequence (P32927 17-897, chain 2 of 2): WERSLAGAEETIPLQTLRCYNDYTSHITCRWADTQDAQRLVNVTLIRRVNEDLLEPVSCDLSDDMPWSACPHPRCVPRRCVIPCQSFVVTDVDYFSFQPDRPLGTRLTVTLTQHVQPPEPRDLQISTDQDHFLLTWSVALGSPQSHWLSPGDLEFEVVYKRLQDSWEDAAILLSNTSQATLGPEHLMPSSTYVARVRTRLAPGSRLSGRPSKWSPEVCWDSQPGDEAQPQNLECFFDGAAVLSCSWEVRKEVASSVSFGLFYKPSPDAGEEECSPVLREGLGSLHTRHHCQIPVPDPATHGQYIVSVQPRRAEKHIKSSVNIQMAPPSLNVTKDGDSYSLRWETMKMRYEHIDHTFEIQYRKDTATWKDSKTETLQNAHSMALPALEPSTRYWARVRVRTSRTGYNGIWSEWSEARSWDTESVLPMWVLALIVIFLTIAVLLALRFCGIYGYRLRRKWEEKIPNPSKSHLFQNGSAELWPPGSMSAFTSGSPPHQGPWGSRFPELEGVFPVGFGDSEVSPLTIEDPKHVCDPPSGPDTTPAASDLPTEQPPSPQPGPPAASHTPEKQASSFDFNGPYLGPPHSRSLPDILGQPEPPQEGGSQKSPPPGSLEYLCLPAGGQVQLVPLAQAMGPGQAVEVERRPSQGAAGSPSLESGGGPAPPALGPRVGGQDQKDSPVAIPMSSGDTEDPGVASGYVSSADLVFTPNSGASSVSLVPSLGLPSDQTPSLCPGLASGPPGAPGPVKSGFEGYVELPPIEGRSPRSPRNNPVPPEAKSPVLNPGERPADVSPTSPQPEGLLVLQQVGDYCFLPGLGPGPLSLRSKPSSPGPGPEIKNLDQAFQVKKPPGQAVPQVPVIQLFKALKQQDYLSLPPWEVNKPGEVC

relative antagonistic potential (relative receptor binding activity / relative biological activity) | Binder
12 | B1
6 | B2
3 | B3
0.6 | B4
5 | B5
3 | B6
3 | B7

molecular target: T1, IL-3 receptor; assay: receptor binding assay on cells

binding activity retained | Binder
100 percent | B8
100 percent | B9
100 percent | B10
100 percent | B11

molecular target: T1, IL-3 receptor; assay: competition with radiolabeled hIL-3 for binding to cells, relative to reference IL-3
Method: as §1

relative antagonistic potential (relative receptor binding activity / relative biological activity) | Binder
1.6 | B12
1.1 | B13
1.8 | B8
1.2 | B14
2.4 | B15
2.8 | B9
2 | B10

molecular target: T1, IL-3 receptor; assay: competition with radiolabeled IL-3 for binding to cells; NC: No competition was observed for the particular mutein preparation
Method: as §1

binding result | Binder
no binding | B16
no binding | B17
no binding | B18
no binding | B19
no binding | B20
no binding | B21
no binding | B22
no binding | B23
no binding | B24
no binding | B25

molecular target: T1, IL-3 receptor; assay: cell-based or functional assay

REL. SPEC. BIOLOGICAL ACTIVITY (DNA synthesis of AML193 cells) | Binder
0.0048 relative to reference IL-3 | B12
1e-05 relative to reference IL-3 | B16
6.4e-06 relative to reference IL-3 | B17
0.0057 relative to reference IL-3 | B13
2 relative to reference IL-3 | B8
5.3e-05 relative to reference IL-3 | B14
7.3e-05 relative to reference IL-3 | B18
1.8e-05 relative to reference IL-3 | B19
6.6e-05 relative to reference IL-3 | B20
1.1e-05 relative to reference IL-3 | B21
0.0031 relative to reference IL-3 | B1
< 1.2e-05 relative to reference IL-3 | B22
0.00032 relative to reference IL-3 | B2
0.015 relative to reference IL-3 | B3
0.0075 relative to reference IL-3 | B4
0.0022 relative to reference IL-3 | B5
0.0086 relative to reference IL-3 | B6
0.011 relative to reference IL-3 | B7
< 0.00015 relative to reference IL-3 | B23
1.2e-05 relative to reference IL-3 | B24
0.0021 relative to reference IL-3 | B15
2.4e-05 relative to reference IL-3 | B25
0.71 relative to reference IL-3 | B9
0.4 relative to reference IL-3 | B10
